Values quoted from earlier work, collected in paper PMC5530503.

Target: VEGFR2 (Homo sapiens) (UniProt P35968)
UniProt P35968, sequence (P35968 20-1356): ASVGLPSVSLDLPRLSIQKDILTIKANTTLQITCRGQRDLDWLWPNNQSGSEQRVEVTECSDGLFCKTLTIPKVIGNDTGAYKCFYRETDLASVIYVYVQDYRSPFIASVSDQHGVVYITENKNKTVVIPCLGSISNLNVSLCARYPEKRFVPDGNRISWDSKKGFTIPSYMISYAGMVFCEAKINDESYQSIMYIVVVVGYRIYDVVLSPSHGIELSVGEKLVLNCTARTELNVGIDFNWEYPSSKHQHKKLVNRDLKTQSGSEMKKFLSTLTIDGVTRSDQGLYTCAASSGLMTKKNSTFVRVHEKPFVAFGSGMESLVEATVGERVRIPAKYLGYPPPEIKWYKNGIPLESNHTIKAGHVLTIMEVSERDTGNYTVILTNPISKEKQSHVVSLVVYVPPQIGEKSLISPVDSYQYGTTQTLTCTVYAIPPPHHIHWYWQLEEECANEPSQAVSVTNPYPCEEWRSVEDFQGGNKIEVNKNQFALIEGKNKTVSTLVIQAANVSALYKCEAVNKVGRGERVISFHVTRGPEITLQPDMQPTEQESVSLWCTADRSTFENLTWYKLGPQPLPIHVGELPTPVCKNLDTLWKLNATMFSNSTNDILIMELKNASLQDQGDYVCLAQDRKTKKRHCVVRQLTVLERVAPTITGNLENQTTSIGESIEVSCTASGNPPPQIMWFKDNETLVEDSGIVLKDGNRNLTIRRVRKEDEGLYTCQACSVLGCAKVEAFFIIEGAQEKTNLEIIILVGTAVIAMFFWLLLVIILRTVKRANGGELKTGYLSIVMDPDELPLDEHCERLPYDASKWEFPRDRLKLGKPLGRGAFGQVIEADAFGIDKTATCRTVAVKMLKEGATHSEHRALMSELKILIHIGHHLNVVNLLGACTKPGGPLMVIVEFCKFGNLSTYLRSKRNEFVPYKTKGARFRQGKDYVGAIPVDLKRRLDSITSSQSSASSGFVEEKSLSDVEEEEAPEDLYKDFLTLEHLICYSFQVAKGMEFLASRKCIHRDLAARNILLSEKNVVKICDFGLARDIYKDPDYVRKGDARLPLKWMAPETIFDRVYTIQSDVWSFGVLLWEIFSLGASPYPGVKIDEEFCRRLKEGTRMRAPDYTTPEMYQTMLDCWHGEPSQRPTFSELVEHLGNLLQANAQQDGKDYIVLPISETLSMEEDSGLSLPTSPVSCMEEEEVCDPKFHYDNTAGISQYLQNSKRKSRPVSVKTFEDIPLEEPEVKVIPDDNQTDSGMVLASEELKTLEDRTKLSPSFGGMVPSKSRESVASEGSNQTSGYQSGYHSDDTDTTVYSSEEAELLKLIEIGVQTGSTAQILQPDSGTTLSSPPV

Substance: VEGF (from UniProt P15692)
- Kd: 0.037 nM
